# Assay results as given in the supplement of paper PMC10567573.
# ± gives the standard deviation.
# Assay: protein stability index of a GFP-peptide fusion (GPS, HEK-293T) (PSI 1-6); higher = more stable
# [1] = treatment: DMSO, c terminus: a fixed tail appended
# [2] = treatment: MLN4924 1 uM, 8 h, c terminus: a fixed tail appended
# 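Further: 24-mer peptide tiles fused after GFP, lentivirally expressed, FACS-sorted into six equal bins by GFP/DsRed ratio, decoded by Illumina sequencing, PSI is the read-weighted mean bin number.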
Sequence,protein stability index [1],protein stability index [2],"protein stability index (treatment: DMSO, c terminus: native)","protein stability index (treatment: MLN4924 1 uM, 8 h, c terminus: native)"
MLVDGIDPNFKMEHQNKRSPLHAA [EHMT1],3.41 ± 0.39,3.67 ± 0.31,–,–
RAGTEPSDAIRVVNAVLTQIDQIK [TRIP13],3.37 ± 0.15,3.04 ± 0.27,–,–
GSSGPAGLTLGRSFSNYRPFEPQA [SEPHS2],3.22 ± 0.12,3.28 ± 0.16,–,–
MPVQLTSRREIRKIMGVEEEDDDD [ANKRD40],5.62 ± 0.19,5.57 ± 0.13,–,–
LGVYSALREIAFTRQLHEKTSQLS [ATE1],2.59 ± 0.71,2.4 ± 0.69,–,–
TRPKKMGSQLPKPRMLRESGHGDA [FATE1],4.53 ± 0.19,4.53 ± 0.22,–,–
TAEAEELKPFFMKEVGSHFDDFVT [SOAT1],3.91 ± 0.25,3.94 ± 0.34,–,–
ADWAVMDVVNYFRTVGFEEQASAF [SAMD13],2.21 ± 0.3,2.59 ± 0.19,–,–
GLRQRASNKVQDSAPVETPRGKPP [HMOX1],5 ± 0.25,4.83 ± 0.2,–,–
PEEPSAEDSINNSLVQLQASHQQQ [MYBL2],5.62 ± 0.18,5.55 ± 0.16,–,–
SEEAAVLQYASLVGQKCSERMLLF [ATE1],2.37 ± 0.4,2.19 ± 0.34,–,–
RVFRVTFLMLAVSLTVPLLGAMML [APMAP],2.2 ± 0.43,2.4 ± 0.55,–,–
LGSPYGQPPRFPVPHNGSSEATLP [PDLIM4],4.52 ± 0.31,4.6 ± 0.22,–,–
ILVYDIANRWSFEGMDRWIKKIEE [RAB40A],2.43 ± 0.38,2.34 ± 0.16,–,–
TPLHLDLTQLHRLSLESSPDAPDH [PLEKHN1],4.59 ± 0.29,4.63 ± 0.23,–,–
YNILKTCRGHTLERSVFSERTEES [CARM1],2.56 ± 0.5,2.56 ± 0.6,–,–
IESKIPLNMEEPPVEEPEPKPDRL [SLC19A2],5.36 ± 0.24,5.57 ± 0.12,–,–
NISGHTNTNTLKVPECRLAEDLGN [SPOPL],3.53 ± 0.26,3.7 ± 0.19,–,–
GGSGGGAGGAGGGVTEEQEGFADG [JUNB],5.5 ± 0.087,5.42 ± 0.43,–,–

Sequence,protein stability index [1],protein stability index [2],"protein stability index (treatment: DMSO, c terminus: native)","protein stability index (treatment: MLN4924 1 uM, 8 h, c terminus: native)"
LKSKAEAEALYQTKFQELQLAAGR [KRT71],3.73 ± 0.22,3.85 ± 0.41,–,–
VKVTFNKQDSLVILTIMATLKIRN [TMEM106C],2.92 ± 0.53,2.89 ± 0.32,–,–
SEKTDESDTIPYLKKFLYNFDNPW [MIA2],2.78 ± 0.14,2.11 ± 0.039,–,–
RLASFDSSGKLICSRTTGYQILTL [GMCL1],2.63 ± 0.93,2.55 ± 0.19,–,–
VFFFIFFVQDVLFVLQAIGIPGWG [SCAMP3],3.44 ± 0.83,2.93 ± 0.71,–,–
YNNDIDYYAKRNALRAAEVWMDDF [GALNT9],2.96 ± 0.076,2.99 ± 0.32,–,–
CIVSPDRPGVQDAALIEAIQDRLS [VDR],3.55 ± 0.14,3.65 ± 0.25,–,–
ALRVQQLVAKELGQTGTRLTPADK [AUP1],4.04 ± 0.18,4.16 ± 0.14,–,–
MSSASGLRRGHPAGGEENMTETDA [CASP6],5.3 ± 0.33,5.39 ± 0.16,–,–
SYSIQKVIGFAKMIPGFRDLTSED [VDR],2.52 ± 0.29,2.88 ± 0.12,–,–
RKPDYTAYVAMIPQCIKEEDTPSD [ATF4],4.47 ± 0.25,4.62 ± 0.21,–,–
FKCRNKTSGQVVAVKKFVESEDDP [CDKL4],4.7 ± 0.089,4.94 ± 0.28,–,–
PAFPFIYTPTAEDSAQMQNGGPST [ANKRD40],4.55 ± 0.12,4.5 ± 0.23,–,–
PVQPGMLIDVCKYLGSLQYRVWKK [TRIM35],2 ± 0.2,2.17 ± 0.29,–,–
QRVPKVLVENAKNFPQCVLEISDQ [EFHC1],3.49 ± 0.19,3.81 ± 0.29,–,–
QAPKSKSGSRPRKPPPRKHTRSWA [LRRC59],4.05 ± 0.21,4.15 ± 0.29,–,–
TGECKELEKKNEALKERADSLAKE [ATF4],5.54 ± 0.3,5.59 ± 0.18,–,–
PEVECLKANTNEVLWAVVAAFTK [GOLPH3],–,–,2.17 ± 0.17,2.25 ± 0.31
VVEVTKGILEHVDSASPVEDTSND [M1AP],5.54 ± 0.23,5.47 ± 0.31,–,–

Sequence,protein stability index [1],protein stability index [2],"protein stability index (treatment: DMSO, c terminus: native)","protein stability index (treatment: MLN4924 1 uM, 8 h, c terminus: native)"
MARNPAAIDMFIIGATFTDWFTSY [FBXO3],3.1 ± 0.62,2.84 ± 0.57,–,–
LKLYYRRLFPYSQYYRWLNYGGVI [PRIM1],2.07 ± 0.7,2.6 ± 1.2,–,–
GFFSSAFQARLSGNNLHNASIPEH [POMT2],2.81 ± 0.44,3.07 ± 0.35,–,–
SSPVDLVTATDQKVEKMLISSIKE [IMPA1],4.38 ± 0.15,4.28 ± 0.1,–,–
SMEVFTHYDLLNLNGTKVAEGHKA [LOXL2],4.39 ± 0.16,3.85 ± 0.42,–,–
RWPFDHNDFGVFLCKLFPFLQKSS [EDNRA],2.2 ± 0.19,2.05 ± 0.38,–,–
SDHCITSSDMMDSSSFSNLDLSEE [VDR],5.48 ± 0.13,5.42 ± 0.16,–,–
ACRFQEDQEMARDLVERALYSMEC [TCF25],2.34 ± 0.57,2.49 ± 0.53,–,–
NHLPDPEIFRQRFRQFGYQDSPGP [ZNF24],3.54 ± 0.29,3.48 ± 0.3,–,–
RLINHSKCGNCQTKLHDIDGVPHL [KMT5A],2.67 ± 0.45,2.64 ± 0.36,–,–
ASPSSSVRLGSFRSPRAGAGALLR [PRPH],3.65 ± 0.26,3.81 ± 0.19,–,–
TTVGYGDMKPITVGGKIVGSLCAI [KCNA4],2.23 ± 0.47,2.4 ± 0.27,–,–
LGYLLLGAATNVFLFVLARVPAGI [MFSD9],3.29 ± 0.69,2.94 ± 0.4,–,–
RQMHLARFLRMLLRLADEFGVAVV [RAD51],2.55 ± 0.41,2.68 ± 0.28,–,–
GTSTWQFNFKFNLTEDMYAQDSIE [CNOT7],2.4 ± 0.2,2.59 ± 0.28,–,–
SDCCRKLLSSGFEIDTPDKFGRTC [ANKRD44],2.8 ± 0.27,2.97 ± 0.33,–,–
PTTEPETEPEDDRGPVVPKHSTFG [GNAS],5.4 ± 0.18,5.27 ± 0.42,–,–
FAVFPSLNEEQTLQEVPTGLDSIS [ETS2],3.81 ± 0.32,3.79 ± 0.39,–,–
